These results are taken from paper PMC5612032.

The experiment concerns the target Amyloid-β peptide Aβ(1-42). The experiment in a line: NMR titration; 5 μM soluble pEAβ(3-42), 5% Aβ(1-42) fibrils added directly; decrease of the NMR signal of soluble pEAβ(3-42) within ca. 10 min; 10 mM sodium phosphate pH 7.4, 37 °C.

“Pyroglutamate-modified amyloid-β pEAβ(3-42) (peptide)” yielded a decrease in NMR signal intensity of soluble pEAβ(3-42) of 50% and a stoichiometry N (pEAβ(3-42) : Aβ(1-42) in fibrils) of 10.
